Measured values from patent US20230406935A1 (F STAR THERAPEUTICS, published 2023).
Values belong to the binder of their own block, whether it stands above or below them.

Legend:
[1] = molecular target: T1, Recombinant mouse PD-L1 with a C-terminal human IgG tag (R&D Systems, 1019-B7), biotinylated (mouse, UniProt Q9EP73 19-238); test: SPR BIAcore 3000, mouse PD-L1 Fc on streptavidin chip
T1 construct: also called mouse PD-L1 Fc

[2] = molecular target: T2, Human CD80 expressed on HEK 293 cells (human, UniProt P33681 35-288); test: flow cytometry on HEK 293 cells
T2 construct: also called hCD80
T2 sequence: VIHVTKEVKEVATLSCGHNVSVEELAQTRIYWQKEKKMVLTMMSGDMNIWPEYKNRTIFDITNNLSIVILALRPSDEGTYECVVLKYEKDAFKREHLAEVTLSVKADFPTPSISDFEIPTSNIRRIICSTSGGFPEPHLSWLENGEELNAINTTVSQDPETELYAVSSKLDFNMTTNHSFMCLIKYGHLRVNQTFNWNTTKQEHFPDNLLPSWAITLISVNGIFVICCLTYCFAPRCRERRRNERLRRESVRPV

[3] = molecular target: Mouse PD-L1 expressed on HEK 293 cells (mouse, UniProt Q9EP73 19-290); test: flow cytometry on HEK 293 cells
[4] = molecular target: T3, Mouse CD80 expressed on HEK 293 cells (mouse, UniProt Q00609 38-306); test: flow cytometry on HEK 293 cells
T3 sequence: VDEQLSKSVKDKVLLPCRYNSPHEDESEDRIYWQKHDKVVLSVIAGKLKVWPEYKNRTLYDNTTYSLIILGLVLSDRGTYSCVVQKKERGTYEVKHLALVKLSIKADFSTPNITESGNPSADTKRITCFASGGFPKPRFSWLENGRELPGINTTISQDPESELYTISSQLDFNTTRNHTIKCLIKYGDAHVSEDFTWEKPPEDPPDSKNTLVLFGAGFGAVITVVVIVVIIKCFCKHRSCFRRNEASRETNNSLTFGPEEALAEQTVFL

[5] = molecular target: T4, Human PD-1 expressed on HEK 293 cells (human, UniProt Q15116 25-288); test: flow cytometry on HEK 293 cells
T4 construct: also called hPD-1

[6] = molecular target: T5, Human PD-L1 expressed on cells (human, UniProt Q9NZQ7 19-290); test: cell-based or functional assay
[7] = molecular target: T5, Human PD-L1 expressed on cells; test: cell-based or functional assay; remark: listed apart in the source
[8] = molecular target: T6, Monomeric cynomolgus PD-L1 (Acro Biosciences PD1-C52H4) (cynomolgus, UniProt Q9NZQ7 19-238 (human entry)); test: SPR Biacore T200, Fcab captured on protein A chip, monomeric antigen in flow, 1:1 fit
T6 construct: also called cynomolgus monomeric PD-L1

[9] = molecular target: T7, Monomeric His-tagged human PD-L1 (Acro biosystems PD1-H5229) (human, UniProt Q9NZQ7 19-238); test: as above
T7 construct: also called hPD-L1-his; PD-L1-his

[10] = molecular target: T8, Biotinylated hPD-L1-Fc-Avi (human, UniProt Q9NZQ7 19-238); test: cell-based RBA, blocking of hPD-L1-Fc-Avi binding to HEK293 hPD-1 cells
Protocol: (§1) The ability of the Fcabs and mock mAb² to block hPD-1/hPD-L1 and hPD-L1/hCD80 interactions was tested in cell-based Receptor Binding Assays (RBA). […] The mix was incubated for another hour with HEK293 cells overexpressing either hPD-1 or hCD80.

[11] = molecular target: T7, Monomeric His-tagged human PD-L1 (Acro …); test: SPR Biacore, captured on protein A, monomeric PD-L1-his in flow, 1:1 fit
Protocol: The monomeric PD-L1-his human antigen was flowed over the chip in titrating concentrations at a high flow rate to minimise mass transport limitations. The KDS were measured using a 1:1 fitting analysis with no refractive index correction and Rₘₐₓ set to local.

[12] = molecular target: T8, Biotinylated hPD-L1-Fc-Avi; test: cell-based RBA, blocking of hPD-L1-Fc-Avi binding to HEK293 hCD80 cells
Protocol: as §1

[13] = molecular target: T9, Recombinant human PD-1 with a C-terminal human IgG tag (R&D Systems, 1086-PD) (human, UniProt Q15116 25-167); test: SPR Biacore, PD-1 coated on the chip, Fcab in flow
T9 construct: also called human PD-1 Fc; biotinylated PD-1 Fc
Excerpt: (§2) The Fcab was then flowed over the chip at a 1000-fold concentration range. […] However, the Fcab did bind to PD-L1.

[14] = molecular target: T10, PD-L2 (R&D systems 1224-PL) (UniProt Q9BQ51 20-219); test: SPR Biacore, PD-L2 coated on the chip, Fcab in flow
T10 sequence (looked up): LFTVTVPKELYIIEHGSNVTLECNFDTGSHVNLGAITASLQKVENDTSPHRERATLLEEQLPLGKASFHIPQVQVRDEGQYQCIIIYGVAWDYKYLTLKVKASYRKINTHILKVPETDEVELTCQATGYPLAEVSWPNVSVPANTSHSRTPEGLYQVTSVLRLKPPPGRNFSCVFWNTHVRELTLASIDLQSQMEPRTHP
Excerpt: as §2

[15] = molecular target: the molecule itself; test: analytical ultracentrifugation, self-association of the Fcab (monomer and dimer peaks)
Protocol: To address this, the molecules were analysed via analytical ultracentrifugation using a Beckman Optima XL-1 instrument.
These domains were then purified using protein A to remove Fc domains, anti-his to remove enzymes and finally subjected to SEC to purify the monomeric fraction.

[16] = molecular target: T11, Cynomolgus PD-L1 expressed on HEK 293 cells (cynomolgus, UniProt Q9NZQ7 19-290 (human entry)); test: flow cytometry, HEK293 cells overexpressing the target, anti-human Fc 488
T11 construct: also called cell-expressed cynomolgus PD-L1
Protocol: (§3) Cell binding assays were performed by incubating Fcabs or mAb² proteins with either control HEK293 cells or HEK293 cells overexpressing hPD-L1 or cynomolgus PD-L1 cells for 1 hour at 4° C. Fcab/mAb binding was subsequently detected using an anti-human Fc 488 detection antibody. Fluorescent signal intensities were measured using a FACS canto.

[17] = molecular target: T5, Human PD-L1 expressed on cells; test: as above
Protocol: as §3

T5 sequence (Q9NZQ7 19-290 limits assumed): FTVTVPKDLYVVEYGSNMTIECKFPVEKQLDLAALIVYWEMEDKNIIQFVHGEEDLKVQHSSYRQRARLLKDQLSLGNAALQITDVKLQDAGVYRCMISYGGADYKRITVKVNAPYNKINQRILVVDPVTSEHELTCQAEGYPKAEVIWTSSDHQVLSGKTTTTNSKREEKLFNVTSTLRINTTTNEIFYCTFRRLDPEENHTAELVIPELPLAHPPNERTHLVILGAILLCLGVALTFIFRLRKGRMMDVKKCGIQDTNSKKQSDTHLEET
T7 sequence (Q9NZQ7 19-238 limits assumed): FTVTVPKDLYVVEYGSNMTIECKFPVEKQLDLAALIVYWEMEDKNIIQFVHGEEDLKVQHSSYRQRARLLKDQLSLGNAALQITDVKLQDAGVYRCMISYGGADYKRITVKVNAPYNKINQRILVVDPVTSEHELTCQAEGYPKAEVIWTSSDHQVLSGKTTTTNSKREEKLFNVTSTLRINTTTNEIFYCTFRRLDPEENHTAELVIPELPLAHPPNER
T8 sequence (Q9NZQ7 19-238 limits assumed): as above
Chain of Mouse PD-L1 expressed on HEK 293 cells (Q9EP73 19-290 limits assumed): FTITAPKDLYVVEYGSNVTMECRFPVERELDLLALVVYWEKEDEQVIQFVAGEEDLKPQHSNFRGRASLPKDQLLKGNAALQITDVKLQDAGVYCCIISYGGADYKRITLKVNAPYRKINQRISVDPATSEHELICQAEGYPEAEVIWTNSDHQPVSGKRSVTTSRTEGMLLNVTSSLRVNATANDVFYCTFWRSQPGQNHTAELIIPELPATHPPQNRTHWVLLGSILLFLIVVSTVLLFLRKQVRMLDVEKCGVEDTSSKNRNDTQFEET
T6 sequence (Q9NZQ7 other isoform, or with tags, fused parts or gaps limits assumed): as the sequence (Q9NZQ7 19-238 limits assumed) above, with A33T, A34S, S62N, R68Q, Q82R, F173L, T185A, T192I, H215L counted along it
T4 sequence (Q15116 25-288 limits assumed): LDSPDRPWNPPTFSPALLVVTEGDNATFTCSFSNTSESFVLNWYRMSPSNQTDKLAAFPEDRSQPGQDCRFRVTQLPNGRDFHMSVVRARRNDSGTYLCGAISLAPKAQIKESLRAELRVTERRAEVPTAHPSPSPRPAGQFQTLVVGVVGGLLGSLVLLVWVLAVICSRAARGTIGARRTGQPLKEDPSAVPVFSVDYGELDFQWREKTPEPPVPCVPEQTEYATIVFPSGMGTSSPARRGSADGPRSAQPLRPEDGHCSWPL
T1 sequence (Q9EP73 19-238 limits assumed): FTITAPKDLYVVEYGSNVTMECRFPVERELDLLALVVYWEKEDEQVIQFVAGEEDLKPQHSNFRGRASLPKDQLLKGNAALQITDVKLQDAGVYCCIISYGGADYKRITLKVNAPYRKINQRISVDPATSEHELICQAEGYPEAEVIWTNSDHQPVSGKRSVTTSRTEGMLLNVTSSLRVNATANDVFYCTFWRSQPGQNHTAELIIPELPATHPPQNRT
T9 sequence (Q15116 25-167 limits assumed): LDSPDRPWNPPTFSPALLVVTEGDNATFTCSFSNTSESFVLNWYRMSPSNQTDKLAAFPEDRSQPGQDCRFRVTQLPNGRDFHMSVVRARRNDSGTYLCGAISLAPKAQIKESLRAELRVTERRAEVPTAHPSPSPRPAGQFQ
T11 sequence (Q9NZQ7 other isoform, or with tags, fused parts or gaps limits assumed): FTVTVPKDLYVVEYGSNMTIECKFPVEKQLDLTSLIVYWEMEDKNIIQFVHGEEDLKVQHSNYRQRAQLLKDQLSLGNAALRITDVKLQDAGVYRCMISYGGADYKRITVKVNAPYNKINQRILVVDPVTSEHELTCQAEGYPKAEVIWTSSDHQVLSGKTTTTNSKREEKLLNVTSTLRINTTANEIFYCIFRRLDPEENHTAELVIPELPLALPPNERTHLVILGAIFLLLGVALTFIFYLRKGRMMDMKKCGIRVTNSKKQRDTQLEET

binding result [1]: no binding
binding result [2]: no binding (tested: 1 µM)
binding result [3]: no binding (tested: 1 µM)
binding result [4]: no binding (tested: 1 µM)
binding result [5]: no binding (tested: 1 µM)
B1: Fcab FS17-33 (Example 1, soluble Fcab with truncated hinge) (designed binder)
chain: TCPPCPAPELLGGPSVFLFPPKPKDTLMISRTPEVTCVVVDVSHEDPEVKFNWYVDGVEVHNAKTKPREEQYNSTYRVVSVLTVLHQDWLNGKEYKCKVSNKALPAPIEKTISKAKGQPREPQVYTLPPSRDEQSGYWVSLTCLVKGFYPSDIAVEWESNGQPENNYKTTPPVLDSDGSFFLYSKLTVSNWRWQMGDFSCSVMHEALHNHYTQKSLSLSPGK

B2: Fcab FS17-33-116 with LALA mutation (designed binder)
chain: TCPPCPAPEAAGGPSVFLFPPKPKDTLMISRTPEVTCVVVDVSHEDPEVKFNWYVDGVEVHNAKTKPREEQYNSTYRVVSVLTVLHQDWLNGKEYKCKVSNKALPAPIEKTISKAKGQPREPQVYTLPPSRDESGYWVSLTCLVKGFYPSDIVVEWESNGEPQYWAKTTPPVLDSDGSFFLYSKLTVSNWRWQMDDFSCSVMHEALHNHYTQKSLSLSPGK
DO11.10 T cell activity assay EC50 [6]: 0.28 nM
DO11.10 T cell activation assay EC50 [7]: 0.28 nM

B3: Fcab FS17-33-116 (designed binder)
chain: TCPPCPAPELLGGPSVFLFPPKPKDTLMISRTPEVTCVVVDVSHEDPEVKFNWYVDGVEVHNAKTKPREEQYNSTYRVVSVLTVLHQDWLNGKEYKCKVSNKALPAPIEKTISKAKGQPREPQVYTLPPSRDESGYWVSLTCLVKGFYPSDIVVEWESNGEPQYWAKTTPPVLDSDGSFFLYSKLTVSNWRWQMDDFSCSVMHEALHNHYTQKSLSLSPGK
Kd [8]: 0.42 nM
Kd [9]: 0.33 nM
EC50 [10]: 9.5 nM
Kd [11]: 0.49 nM
koff [11]: 0.00044 s⁻¹
kon [11]: 1.5e+06 M⁻¹ s⁻¹
EC50 [12]: 8.4 nM
binding result [13]: no binding
binding result [14]: no binding
Kd [15]: ~2000 nM
Kd [16]: 0.665 nM
Kd [17]: 1.68 nM
